This is an account of results in PMC5147519.

As usually defined, the stoichiometry N is a count of units in the complex or per binding partner.

The assay addresses K18 WT tau (tau four-repeat domain), poly-histidine tag intact (human). Nature of the assay: SDS-PAGE and Western blot (SDS-resistant dimers and aggregates); soluble and pellet fractions of IPTG-induced E. coli, 15% Tris-glycine SDS-PAGE, blot with polyclonal anti-human tau A0024. On the technique in general: Immunoblotting shows a protein as a band on a membrane.

On to “K18 WT tau (tau four-repeat domain), poly-histidine tag intact (domain or fragment)”, for which the stoichiometry N was found to be 2.
